The nature of this data set: protein stability index of a GFP-peptide fusion (yeast GPS) (PSI 1-4); higher = more stable; sorted into four equal gates, so the index is relative within each strain. The procedure, abridged: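 Tiled 17-residue peptides from yeast proteins were fused downstream of GFP on a plasmid that also expresses Cherry, and the pooled library was carried in yeast. Mid-log cultures grown in leucine-free medium were sorted into four equal gates by GFP/Cherry fluorescence ratio. Plasmids from each gate were PCR-amplified and Illumina-sequenced, and reads were assigned to strains by barcodes. Each peptide's protein stability index is the sum, over gates, of the gate's read frequency multiplied by its gate number.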

± gives the uncertainty stated by the source.

As to EIEDGQDGGVTPYSNES [RPO21], the protein stability index was 3.49 ± 0.1 (doa10∆), 3.35 ± 0.069 (pdr5∆), 3.38 ± 0.049 (san1∆) and 3.22 ± 0.08 (ubr1∆).
Regarding DEDWSVRIDKALELDDT [ECM29], the protein stability index is 2.76 ± 0.18 (doa10∆) and 3.38 ± 0.17 (pdr5∆).
Regarding SGNNSKKRKNKSSGSSM [ROX3], the protein stability index by setting is: (doa10∆) 2.65 ± 0.14; (pdr5∆) 2.94 ± 0.075; (san1∆) 2.91 ± 0.12; (ubr1∆) 3.17 ± 0.068.
Taken in the same sequence, the figures for FLSQGLHVVITLLREVV [CSN12] were 1.49 ± 0.06, 1.73 ± 0.059, 1.91 ± 0.093 and 2.13 ± 0.057.
Taken in the same sequence, the figures for KLRSELGYKDTSVIQDL [BRR2] were 2.74 ± 0.13, 2.22 ± 0.083, 2.69 ± 0.072 and 2.96 ± 0.083.
Consider VSPNISSASPSALTSPT [SIR3], for which the protein stability index was 2.45 ± 0.056 (doa10∆), 2.78 ± 0.074 (pdr5∆), 2.95 ± 0.06 (san1∆) and 2.53 ± 0.04 (ubr1∆).
In the case of KEIRAFDKLLNIPRREL [SRB4], the protein stability index by setting is: (doa10∆) 2.6 ± 0.08; (pdr5∆) 2.46 ± 0.07; (san1∆) 2.73 ± 0.08; (ubr1∆) 1.95 ± 0.071.
For the sequence ADAQIQRETYDSNESDD [YLR335W/NUP2], the protein stability index was 2.07 ± 0.22 (doa10∆), 3.38 ± 0.21 (pdr5∆) and 2.66 ± 0.21 (ubr1∆).
Sequence KMLMNLHKEQWQSGLKM [RPN11] yielded a protein stability index (doa10∆) of 2.14 ± 0.048, a protein stability index (pdr5∆) of 2.05 ± 0.04, a protein stability index (san1∆) of 2.4 ± 0.039 and a protein stability index (ubr1∆) of 2.13 ± 0.035.
As to NLLESITKLLEINLSKI [YCS4], the protein stability index (doa10∆) worked out at 2.73 ± 0.057, the protein stability index (pdr5∆) amounted to 2.55 ± 0.043, the protein stability index (san1∆) came to 2.94 ± 0.036 and the protein stability index (ubr1∆) was found to be 2.77 ± 0.034.
For SGQFYFRNPTPLLSNYA [RGR1], the protein stability index is 1.36 ± 0.059 (doa10∆), 1.54 ± 0.045 (pdr5∆), 1.8 ± 0.081 (san1∆) and 1.89 ± 0.044 (ubr1∆).
With AAPSAADIKAVVESVGA [RPP2B], the protein stability index (doa10∆) was 3.08 ± 0.1, the protein stability index (pdr5∆) was 3.06 ± 0.073, the protein stability index (san1∆) worked out at 3.05 ± 0.094 and the protein stability index (ubr1∆) stood at 3.29 ± 0.084.
For DVIHFEDSSILQSIVNE [PCI8], the protein stability index (doa10∆) was 3.21 ± 0.089, the protein stability index (pdr5∆) was found to be 3.06 ± 0.076, the protein stability index (san1∆) stood at 3.04 ± 0.05 and the protein stability index (ubr1∆) stood at 3.47 ± 0.073.
Regarding SNVNSDIYFKLKKLEKE [RPT3], the protein stability index was 3.22 ± 0.09 (doa10∆), 2.73 ± 0.09 (pdr5∆), 2.93 ± 0.086 (san1∆) and 3.03 ± 0.072 (ubr1∆).
Taken in the same sequence, the figures for AIIVAGVQSNGDQFLRY [PRE4] were 2.74 ± 0.095, 2.83 ± 0.073, 2.4 ± 0.13 and 2.28 ± 0.061.
On to QYTQRLSKLEKALDRHE [SRP68], for which the protein stability index reads like this: (doa10∆) 2.52 ± 0.046; (pdr5∆) 2.65 ± 0.035; (san1∆) 2.72 ± 0.039; (ubr1∆) 2.66 ± 0.037.
DVFTINPHQKDQLIISS [YML103C/NUP188]: the protein stability index worked out at 1.56 ± 0.18 (doa10∆), 2.19 ± 0.19 (pdr5∆), 1.62 ± 0.24 (san1∆) and 2.74 ± 0.24 (ubr1∆).
SLSNPNSTATMQHNPLA [PGD1]: the protein stability index by setting is: (doa10∆) 2.86 ± 0.04; (pdr5∆) 3.1 ± 0.039; (san1∆) 2.96 ± 0.034; (ubr1∆) 2.967 ± 0.029.
Taken in the same sequence, the figures for SNDTTAFNDSCVNLSLF [SRB8] were 3.07 ± 0.065, 2.92 ± 0.069, 3.13 ± 0.06 and 2.34 ± 0.035.
As to YKPLIEERMGQIENLNE [SMC4], the protein stability index turned out to be 3.2 ± 0.23 (doa10∆), 3.34 ± 0.098 (pdr5∆), 3.46 ± 0.071 (san1∆) and 3.28 ± 0.068 (ubr1∆).
For KRINFEKIKDIHNTKLP [POP1], the protein stability index came to 2.42 ± 0.17 (doa10∆), 3.06 ± 0.13 (pdr5∆), 2.87 ± 0.28 (san1∆) and 2.54 ± 0.076 (ubr1∆).
On to LKVLSGDEGYNEDMVRR [SNF12], for which the protein stability index is, setting by setting: (doa10∆) 3.48 ± 0.13; (pdr5∆) 3.22 ± 0.13; (san1∆) 3.25 ± 0.095; (ubr1∆) 3.56 ± 0.15.
For the sequence VKIRATGGTRTKTPGPG [RPS14A], the protein stability index amounted to 3.21 ± 0.25 (doa10∆), 3.08 ± 0.16 (pdr5∆), 2.72 ± 0.14 (san1∆) and 3.33 ± 0.21 (ubr1∆).
With SQKTKTIQSDLNLSLHK [SMC2], the protein stability index is, setting by setting: (doa10∆) 2.35 ± 0.056; (pdr5∆) 2.3 ± 0.043; (san1∆) 2.19 ± 0.071; (ubr1∆) 2.67 ± 0.03.
Taken in the same sequence, the figures for GLRTENVLDYFAESPFF [MED6] were 3.35 ± 0.12, 3.25 ± 0.18, 2.94 ± 0.077 and 2.83 ± 0.047.
